The series is described as follows: label from the status in PepcDB records.

With “MADVAVLNIDSVICVNKNNDKSTPLTQLFLVLVAAESFYPTRRFVGIRVKRRQHQHLLESLVHSTAKQQGDFTKTAELATELLCQNLAVSLVSIWIFSADQGTQSLVAQFGSMALQDTYRPSLLHTVPRYLNELKNYRHIDAGNTLIDPRLTELVDSYFIPRQILSSLDVGIRINGHLEGVLCIERAQVTHHWHDSEIHLACQMADQLALTLATKHAYDKEERLSLFRCAIEQSRQMSMLINLHTEKVEYVNQAHEDITGIARDKSIGTNLRDLTFFRQHNALAEQTLAKIFRGDQAKGEVQFSRTDGSRYWLKYIVSQFITDRGNHYALVSGEENSDEHNYKAELERLAWRCGLTGLNNRSHFNRVLERTTHGLLLLVDLVAFKRFNDTYGHENGDSLLIEVGRRLKHFSEINKATEIARVGSDEFAVLLTDDNAVYDLDYFSTRLYQHLAMPILIGREQVEPKPALAVVDIASVANLFAPLTCADIAVQYAKKKKGTAIQVFNSTLLSAFKEDAQIERDLHSAIRGRQFELYYQPLRDLEQQTYIGAEALIRWHHPKKGVLYPGAFIDIAEQSGMINAIGSWVLEAACRQLNIWQHHNADLSMHVNVSARQFFSGNLYEQVWQLLTRYRLKPKTLILEITETELMGDIRHATLLCQELAELGVGLAIDDFGTGYSSMRYLKQFPISKLKIDRSFISDLTISRESQEIVSAIIAMANALNISLTAEGVETAEQEAFLAKSLCHQAQGFLYSPALREPEFAQFLLTAKQPNLIAH”, the protein production entry was “failed”.

With “MADWTRAQSSGAVEEILDRENKRMADSLASKVTRLKSLALDIDRDTEDQNRYLDGMDSDFTSVTGLLTGSVKRFSTVARSGRDNRKLLCGMAVVLIVAFFILSYLLSRTRT”, the protein production entry is reported as “failed”. As for “MAEAIFALDVGTRKVAGLVLAQGKKGYHIQAAAVVEHQQRAMLDGQIHDIPQVALAIQDVKGQLEKKLHISLKEAAVAAAGRALKTWRASATSQLSPAQEIAPQAVLALEAAAVQEAEKLLLEASEQPLAYHCVGYSVVGYNLDGHPIGNLVGQRGQSMTAEVIATFLPRVVVDSLVTALERAGLAMHSLTLEPIAASAVAVPAAMRGLNLALVDIGAGTSDIAITGQGTISGYAMVPSAGDEITEALASALILDFNTAERVKRQLSTRENLTFTDVVGQRHTLAAAELMEIIKPAVTELARQVATQIILLNGKPPQAVLLIGGGSLTPGLAAALAGQLEISPERVAVRGREVLNGISGAKNLQGPQAITPIGIAITALKREGLGLARVIVNGRPVHFLAGQQMTVTQALLAAGIPARHLYGRPGRGLGVEVNGRLTFLRGQPGEPGKILVNEAPATLETVVKAGDHIIVTPGRDGADAWGTVGDLVPELAPKTITFNGRRITLEPEIIMNGNRVDYRTPVQDQARITYNPLDTVARVLEYLGEPLDGPVLLNGQQVRPEAPIKDGDNLVTGAGATGRNINITINGRPATLRVQAGEALFTDVFNYLDFPSSPPPGRKTLVMEVNGRPAEFTTPLAEGDAVTLRWDP”, the protein production entry is on record as “failed”. The value for “MAEASPQPGRYFCHCCSVEIVPRLPDYICPRCESGFIEELPEETRNTENGSAPSTAPTDQNRQPFENVDQHLFTLPQGYSQFAFGIFDDSFEIPTFPPGAQADDGRDPESRREREHQSRHRYGARQPRARLTARRATGRHEGVPTLEGIIQQLVNGIISPAAVPSLGLGPWGVLHSNPMDYAWGANGLDTIITQLLNQFENTGPPPADKEKIQALPTVPVTEEHVGSGLECPVCKEDYALGESVRQLPCNHLFHDSCIVPWLEQHDSCPVCRKSLTGQNTATNPPGLTGVGFSSSSSSSSSSSPSNENATSNS” was “not failed”; that for “MAEEEVGNSQRQSEEIEAMAAIYGEEWCVIDENAKIFCIRVTDFMDDPKWTLCLQVMLPSEYPGTAPPSYQLNAPWLKGQERADLSNSLEEIYVHNMGESILYQWVEKIRDALIQKSQITEPDPDVKKKTEEVEVESEEDPILEHPPENPVKTLDLKISEETQPETEELPPVAHGVPITDRRSTFQAHVAPVVCPEQVKLVLAKLYENKKIASATHNIYAYRIFCEDKQTFLQDCEDDGETAAGGRLLHLMEILNVKNVMVVVSRWYGGILLGPDRFKHINNCARNILVEKNFTNTPDESTKNLGKKKVKKDKKKNDH” was “failed”; that for “MAEFPASLLILNGKSTDNLPLREAIMLLREEGMTIHVRVTWEKGDAARYVEEARKFGVATVIAGGGDGTINEVSTALIQCEGDDIPALGILPLGTANDFATSVGIPEALDKALKLAIAGDAIAIDMAQVNKQTCFINMATGGFGTRITTETPEKLKAALGSVSYIIHGLMRMDTLQPDRCEIRGENFHWQGDALVIGIGNGRQAGGGQQLCPNALINDGLLQLRIFTGDEILPALVSTLKSDEDNPNIIEGASSWFDIQAPHDITFNLDGEPLSGQNFHIEILPAALRCRLPPDCPLLR” was “not failed”. The value for “MAEHPIQGLMETAMESIKEMVDVNTIVGDAVQAPDGTVIIPISKVTFGFAAGGGEFASCCSVDEKGEDSSDDSSKPEIKFPFAGGSGAGVSINPVAFMVVGQGQIKLLPVNINSSLEKILDLIPEIIEKTKDSVKKNLKVKKEIKPGNGESCAKSSKEDENELEHHHHHH” was “not failed”. As for “MAEISHPPMEQLQDLEYCIDSNPPWPETVLLAFQNYILMLGTSAFIPALLVPAMGGSDGDRARVIQTLLFVAGIKTLLQALFGTRLPAVVGGSLAYVVPIAYIINDSSLQKISNDHERFIHTMRAIQGALIVASSIQIILGYSQVWGLFSRFFSPLGMAPVVGLVGLGMFQRGFPQLGNCIEIGLPMLLLVIGLTQYLKHVRPFKDVPIFERFPILICVTIVWIYAVILTASGAYRGKPSLTQHSCRTDKANLISTAPWFKFPYPLQWGPPTFSVGHSFAMMSAVLVSMVESTGAYIAASRLAIATPPPAYVLSRGIGWQGIGVLLDGLFGTGTGSTVLVENVGLLGLTRVGSRRVVQVSAGFMIVFSTLGKFGAVFASIPVPIYAALHCILFGLVAAVGLSFLQFTNMNSMRNLMITGLSLFLGISIPQFFAQYWDARHYGLVHTNAGWFNAFLNTLFMSPATVGLIIAVFMDNTMEVERSKKDRGMPWWVKFRTFRGDNRNEEFYTLPFNLNRFFPPT”, the entry is “failed”.

For the sequence “MAEKALATLKELAFLEDPSPVERDAAIQRFEYTFEAFWKALQAYLREKEGLEGASPKGVIRLAREVGLLRDEEARLALGMVDDRSLTVHTYNEPLARAIFRRLPDYARLMEQVLGRLRR”, the protein production result was “not failed”. The value for “MAEKEKKTKKKKKKEKHQSSDISFKPSSDVKGLKFGGQIIVKSFTIRRARTFELLKLLSLPSSSSPPLLSTAAYLPTNFTILAHHAWHTLTLGLGTRKSKVVVFVFETEAMKSSVVAAEGGIWPSEIPLGDVNKKMIRKLKNWEMARFKFRKGCITFYVYAVRNAGNEGFAAAEDLKVILQAVVALKDFMDHTAMLVMPHQKSINYSSCPPFAMAH” was “failed”.

As to “MAEKLLHTAESDAGIGSWVLHMESGRLEWSQAVHDIFGTDSATFDATEDAYFQRVHPDDRARVRRELDRHVLGDRPFDVEYRIVRPDGQVRELLERNHIQRQASGQVDHLWGTVIDMTEHKQLKRQLQLSQLAVEHCSEGIAIADEGLDWLYVNPALARMGGLTMADPSQLSGLFMAPGVEARLEREALRELLDASGAWQGELLLARRGAAPLPVLASATRLRDEDGRLLSVWVVSDISGMKESERRLHALAFFDGLTGLANRALFGERLRWHLQNEPAGGRLAILFLDLNGFKQVNDLLGHEAGDQVLREVARRLQAGCRPGELAARWGGDEFAVLLPGVADDAVLAARLRELREAARAERWGGGRWLRVSASLGAAVYPESAEDAERLIQLADRAMYRAKSEGGGQVWLHDGGGLRTLAGADCGA”, the protein production entry is listed as “failed”.

Consider “MAEKSNKLDHIGIAVTSIKDVLPFYVGSLKLKLLGMEDLPSQGVKIAFLEIGESKIELLEPLSEESPIAKFIQKRGEGIHHIAIGVKSIEERIQEVKENGVQMINDEPVPGARGAQVAFLHPRSARGVLYEFCEKKEQ”, for which the protein production result was “not failed”. Turning to “MAEKSQIPDNNNNTSSSAKKPTPEIGSGSGKRYYNPPESVNPDQATLREQWKFAIRQYSKWYSHAWGTAILAGGFFFGLGWIIKGSNPLPSLQSSSKPRDEEK”, the protein production entry was “failed”.

Consider “MAELIHSTIGRLLEQTADAYPDRDAVVYPDRNIRYTYAQFDSLCRQTAKGLMRMGIGKGDHVAIWASNISEWLAVQFATAKIGAVLVTVNTNYQAHELDYLLKQSDAAALIIMDSYRGTSYPDIVNSLIPELQEAKPGQLKSERYPFLKTLIYIGNKRLSGMYHWDDTEILAKTVTDAELEERMNSLDKDNVINMQYTSGTTGFPKGVMLTHFNVINNAANIAECMALTSQDRMCIPVPFFHCFGCVLGVLACVSVGAAMIPVQEFDPVTVLKTVEKEKCTVLHGVPTMFIAELHHPDFDAYDLSTLRTGIMAGSPCPSEVMKAVIERMGMKDITIAYGQTEASPVITQTRANDSFIRRVETTGRALPHTEVKIVEPGTCQEVQRGMQGELCTRGYHVMKGYYKDKDATRKAINHDGWLFTGDLAVMDEDGYCRITGRLKDMLIRGGENIYPREIEEFLYQHPAVLDVQVVGVPDAKFGEEAAAWIKLKDGKSVSPDELKAYCKGKIARHKIPRYVIFTDDYPMTASGKIQKY”, for which the protein production result is “not failed”.

Take “MAELLAAGPSGVAGAVARAMERSAPGSGASWYGGDHTDFRDGVFLREVIGVQVVVQEGGTAVPEAMTGLPPRPGGFTGRDRETEDLLRALDPDGAQSAAAPVASVSGLGGIGKTALAVETAHLARERGWFPGGILFIDLHGYDREPVTADRSLRTLLHALGIPPEHMPTTTDERAALYRSTLAVRAGERGGMLVLADNASSAEQVRPLLPGDFRHRVLVTSRDRLPQLGARLLPLDELGTREAYELLDRALRIADPHDGRVGDDPGTTGRLASLCGHLPLALQIAAALLAADPAKPVSELVAELAEAHDRLDHLDDGERSVRAAFELSYRRLPPEQARLLRLLALAPGPEVSDEVVAALVGADRPPVRDQHALARAHLVERGHTRGSWRLHDLVRVFGAGVVARAEGDAARARVLRHYLERARAADARLKPRTEDDEGTRPFRSREEALAWFDAERAGLVAAVQWATDRQLAADAVRLAGALGEYLDWRRRFDDSVTVCGAVCAAARRAGDEAAEAAAWNRTGTALRGNRRLREAYDAHRRAHDLYDALGHDNGRAMALSNLGAILGDVGQVDDAVDAFRLALGLFRRTGDRHSEAGVWNNLALILRKSGRVDEALDALRSALGLYRETGDRPREGRARHNYAVALNARGRTAEAVTACLDSLDICEEFEDWHGAARTLYALGLVHETAGDAERARVRMTQAADAYERAGSPKEAEQARRAARLTGPAPTGTPAPAAPPDRTADSGPPGPRPPGVPGNAGP”: the protein production entry is reported as “failed”. As for “MAENHCELLPPAPSGLGAGLGGGLCRRCSAGMGALAQRPGGVSKWVRLNVGGTYFLTTRQTLCRDPKSFLYRLCQADPDLDSDKDETGAYLIDRDPTYFGPVLNYLRHGKLVINKDLAEEGVLEEAEFYNITSLIKLVKDKIRERDSRISQMPVKHVYRVLQCQEEELTQMVSTMSDGWKFEQLVSIGSSYNYGNEDQAEFLCVVSKELHNTPYGTTSEPSEKAKILQERGSRM”, the entry is “not failed”; as for “MAEPKQSSLSEVKTNVIGSRKEEKESMFHGKETHGRSEDIDEKTRVDDVKGPGVLGRMMEEMEAIVDAVTPNKSSDK”, “failed”; as for “MAEPVQEELSVLAAIFCRPHEWEVLSRSETDGTVFRIHTKAEGFMDADIPLELVFHLPVNYPSCLPGISINSEQLTRAQCVTVKEKLLEQAESLLSEPMVHELVLWIQQNLRHILSQPETG”, “not failed”. As for “MAEQDLTMIVGTYTSGDSKGLYSFRFNEENGTATALSEAEVENPSYLVPSADGKFIYAVSEFSNEQAAANAFAFNKEEGTFRLLNTQKTGGEDPCYIITNGSNVVTANYSGGSISVFPIDKDGSLLPASEVVKFKGSGADKERQEKPHLHCVRITPDGKYLFADDLGTDQIHKFIVNPNAKADNEDVFLKEGSPASYKVEAGSGPRHLTFAPNGSYAYLINELSGTVIAFEYNDGELKEIQTIAADTVGAKGSGDIHISPDGKFLYASNRLKADGLAIFSIHPENGMLTKVGYQLTGIHPRNFIITPNGKYLLVACRDSNVIQVYERDTDTGLLTDIRKDIKVDKPVCIKFVPLEHHHHHH”, the entry is “not failed”.

Values taken from a protein production outcome set (Wang et al. 2014).
